The values that follow come from the nanobody polyreactivity screen of Harvey et al. (2022).

This series in a line: yeast display, Sf9 membrane polyspecificity reagent, FACS + sequencing; frameworks hold sequencing errors. The method in brief: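 Genes from sorted yeast were amplified by colony PCR, read by MiSeq 2 × 250 sequencing and filtered on CDR length. These cells carried a synthetic nanobody library in Saccharomyces cerevisiae BJ5465 and were sorted by FACS into low and high (top ~1%) gates on anti-HA and streptavidin fluorescence. Polyreactivity is labelled according to the gate of origin.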
Consider “QVQLVESGGGLVQAGGSLRLSCAASGSIFYFNAMGWYRQAPGKERELVADISGSGGSTYYADSVKGRFTISRDNAKNTVYLQMNSLKPEDTAVYYCAARLYLHSWWYYAYDYWGQGTQVTVSS”, for which the “polyreactivity (PSR sort gate)” value is “high polyreactivity”.
Turning to “QVQLVESGGGLVQAGGSLRLSCAASGITFYRNAMGWYRQAPGKERELVATITRGGSTYYADSVKGRFTISRDNAKNTVYLQMNSLKPEDTAVYYCNRAGGYRTTFYSWGQGTQVTVSS”, the “polyreactivity (PSR sort gate)” value is “high polyreactivity”.
Regarding “QVQLQEGGGLVQAGGSLRLSCAASGYISSPPAMGWYRQAPGKERAFVATIADGTSTYYADSVKGRFTISRDNAKNTVYLQMNSLKTEDTEVYYCAAAYNTEFYLSYWGQGTQVTVIS”, the “polyreactivity (PSR sort gate)” value is given as “high polyreactivity”.
For the sequence “QVQLVESGGGLVQAGGSLRLSCAASGFIFSWYAMGWYRQAPGKERELVATISSSGGRTHYADSVKGRFTISRDNAKNTVYLQMNSLKPEDTAVYYCAAQPFSYFTTVYYWGQGTQVTVSS”, the “polyreactivity (PSR sort gate)” value is “high polyreactivity”.
With “QVQLVESGGGLVQAGGRLRLSCPASGSTFYYYGMGWYRQAHGKERELVAAINCSCGTTYYADSVKGRFTISRDNAKNTVYLQLNSLKPEDTAVYYCAAAFYIYGVEGDYWGQGTQVTVSS” the entry was “low polyreactivity”; with “QVQLVESAGGLVQAGGSLRLSCAASGFTFDYYAMGWYRQAPGKERELVASITFIGGNTNYADSVKGRFTISRDNAKTTVYLQMNSLKPEDTAVYYCAADFPWDYRYWFEYWGQGTQVTVSS”, “low polyreactivity”; with “QVQLVESGGGLVQAGGSLRLSCAASGSIFNRYAMGCYRQATGKERELVAAINSRGGSTSYADSVKGRFTISRDIAKNTVYLQMNSLKPEDTAVYYCAADRGVNSYGYWGQGTQETVSS”, “high polyreactivity”.
With “QDQLVESGGGLVQAGVSLRISCAASGYIFGFYARGWYRQAPGIERELVAAISKSGGNTYYADSVKGRFTISRDNANNTVSLQMNSLKPEDTAVYYCAADSYRYKYNYWGQGTQVTGSS” the entry was “high polyreactivity”.
With “QVQLVESGGGLVQAGCSLRLSCDASGSTFNWNAMGRYRQAPGKERELVAVIRRNGATTNYADSVKGRFTISRDNAKITVYLQMNSLKPEDTAVYYCAVAKWQPRRRKYYYWGQGTQVTVSS” the entry was “high polyreactivity”; with “PVQLVESGGVLVQAGGSLRVSCAASGSILLIYSMGWSIQAPGKERELVAGINWSGSRAYYADSVKGRFTISRDNAQNTVYLQMNSLKPEDTAVYYCAARGRRPLYSAYDSWGQGTQVTVSS”, “low polyreactivity”.
On to “QVQLVESGGGLVQAGGSLRLSCAASGSIFYPYVMGWYRQAPGKERELVAAITTSVGSTYYADSVKGRFTISRDNAKNTVYLQMNSLKPEDTAVYYCAAIYFGSRRPGRYNYWGQGTQVTVSS”, for which the “polyreactivity (PSR sort gate)” value is on record as “high polyreactivity”.
With “QVQLVESGGGLVQAGGSLRLSCAASGFIFRYYAMGWYRQAPGKERELVAAITWSGGSTYYADSVKGRFTISRDNAKNTVYLQMNSLKPEDTAVYYCAADLYYFRYPGYDYWGQGTQVTVSS” the entry was “high polyreactivity”; with “QVQLVESGGGLVQAGGSLRLSCAASGITFPANAMGWYRQAPGKQWELVAAISSYGGSTYYADSVKGRFTISRDNEKNTVDLQMNSLKPEDTAVYYCAAYLSSLGRKYYYWGQGTQVTVSS”, “high polyreactivity”.
With “QVQLVESGGGLVQAGGSLRLRCAASGWYRQAAGKERELVAAITYSGGSTYYADSVKGRFTISRDNAKKTVYLQMNSLKPEDTAVYYCAAQPRVDYEFPYRYGYWGLGTQVTVSS” the entry was “low polyreactivity”; with “QVQLVESGGGLVQAGGSLRLSCAASGRTFIGNAMGWYRQAPGKERELVAGIDSDGSTNYADSVKGRFTISRDNAKNTVYLQMNSLKPEDTAVYYCAAVQGYRFYEYYYWGQGTQVTVSS”, “low polyreactivity”; with “QVHLQESGSGLVQSGGSLRLTCAASGYISLGDNMGWYRQAPGKELEFVATISVGGITYYVDSVKGPFTISRDIEKNTVYLQMNSLKPEDTAVYYCASLDIYYFRYYYWGQGTQVTVSS”, “low polyreactivity”.
With “QVQLVESGGGLVQAGGSLRLSCAASGSTFYYYGMGWYRQAPGKERELVASISWGGGSTYYADSVKGRFTISRDNAKNTVYLQMNILKPEDTAVYYCATRGSYLGGLYDYWGQGTQVTVSS” the entry was “high polyreactivity”.
With “QVQLVESGLGLVQAGRSLRLSCASSGRIFNYYAMVWYRQAPGKERELVAGINWSGTRTYYADSVKGRFTISRDNAKNTVYLQMNSLKPEDTAVYYCNAGRTWRAFTGDEYWGQGTQVSVSS”, the “polyreactivity (PSR sort gate)” value is “high polyreactivity”.
With “QVQLVESGGGLVQAGGSLRLSCAASGSNIYHNTMGWYRQAPGKERELITYYADSVKGRFTISRDNAKNTVYLQMNSLKPEDTAVYYCAASPVSRTGPGDYDYWGQGTQVTVSS” the entry was “low polyreactivity”; with “QVKLVESGGGLVQAGGSLRLSCAASGSIFVGYAIVWYRQAPGKERELVAAISTRGGSTYYADSVKGRFTISRENAKNTVYLKMNSLTPEDTAVYYCAADYLDSTYGYVYGWDDYWGQGTQVTVSS”, “low polyreactivity”.
For the sequence “QVQLVESGGGLVQAGGSLRLSCAASGFTFYVNAMGWYRQAPGKERELVAAISSSGTRTYYADSVKGRFTISRDKAKNTVYLQMNSLKPEDTAVYYCAARGQAYSGDRMYYWGQGTQVTVSS”, the “polyreactivity (PSR sort gate)” value was “high polyreactivity”.
Consider “QVQLVESGGGLVQAGGCLRLSCAASGSTLDSNAMGWYREAPGKERELVAGIDWCGGSTYADSVKGRFTISRDNAKNTVELQMTSLKPEDTAVYYCAKVSRYVQPYSRFDYWGQGTQVTVSS”, for which the “polyreactivity (PSR sort gate)” value is reported as “low polyreactivity”.
On to “QVQLVETGGGLVQAGGSFRLSCAASGGPFDTYVMGWYRQAPGKETELVAVITRGASTYYADSVKGRFTISRDNAKNTVYLQMNSLKPEETAVYYCAASFYSPDYYRFLYSFDYWGQGTQVTVSS”, for which the “polyreactivity (PSR sort gate)” value is listed as “low polyreactivity”.
With “QVQLVESGGGLVQAGGSLRLRCAASGSTCFLYAMGWYRQAPGKEMELVASISDGSSTNYADSVKGRFTISRDNAKNTVYLQMNSLKPEDTAVYYCDAARWYAHRVDYWGQGTQVTVSS” the entry was “low polyreactivity”; with “QVQLVESGGGLVQAGGSLRLSCAASGSIFRKNAMGWYRPAPGKERELVATISGGGSTTYADSVKGRFTISRDNAKNTVYVHMNSLKPEDTAVYYCAARSTWFQLRYGYGGQGTQVTVSS”, “high polyreactivity”.
In the case of “QVQLVESGGGLVQAGGSLRLSCAASGSIFAVYAMGWYRQAPGKERELVAVITRSGGSTYYADSVKGRFTISRDNAKNTVYLQMNSLKPEDTAVYYCAARRSYLLRYDYWGQGTQVTVSS”, the “polyreactivity (PSR sort gate)” value is given as “high polyreactivity”.
On to “QVQLVESGGGLVQAGGSLRLSSAGSGSIFRVYALGWYRQAPGKERELVAVISIAGRTNYADSVKGRFTISRDNAKNTVYLQMNSLKPEDTAVYYCNAGGDGVATGYDYWGQGTQVTVSS”, for which the “polyreactivity (PSR sort gate)” value was “low polyreactivity”.
With “QVQLVESGGGLVQAGGSLRLSCAASGRIFKGYAMGWYRQAPGKERELVAAITWRGGTTYYADSVKGRFTISRDNAKNTVYLQMTSLKPEDTAVYYCARARPTGYNYWGQGTQVTVSS” the entry was “high polyreactivity”; with “QVQLVESGGGLVQSGGSLRLTCAASGRTFPYYAMGWYRQAPGKERELVAAISRRGGSTYYADSVKGRFTISRDNAMNTVYLQMNSLKPEDTAVYYCAAAGGVSGGEYDYWGQGTQVTVSS”, “high polyreactivity”.
On to “QVQLVESGGGLVQAGGSLRLSCAASGSTFDYYAMGWYRQAPGKEREFVASINWNGARTYYADSVKGRFTISRDNAKNTVYLQMNSLKPEDTAVYYCAAYTKRYLYNYWGQGTQVTVSS”, for which the “polyreactivity (PSR sort gate)” value is reported as “high polyreactivity”.
With “QVQLVESGGGLVQAGGSLRLSCAASGFIFGLNAMGWYRQPPGKERELVAVISGRGRTYYADSVKGRFTISRDNAKNTVYLQMNSLKPEDTAVYYCNAVSSYGYDYWGQGTQVTVSS” the entry was “high polyreactivity”; with “QVQLVESGGGLVQAGGSLRLSCAASGRISGVNAMGWSRQAPGKERELVATISGSGGRTYYADSVKGRFTISRDNAKNTVYLQMNSLNPEDTGGYYCNSMVERGGYFSRRFDFWGQGSQVTVSS”, “low polyreactivity”.
Take “QVQLEESGGGLVQAGGSLRLSCAASGITFDFNAKGWYRQAPGTERELVAAIRNRGGSTYYADSVKGRFTISRDNAKNTVYLQMHSLKPVDTAVYYCNVDLWPFVYSWWSYDYWGQGTQVTVSS”: the “polyreactivity (PSR sort gate)” value is “high polyreactivity”.
With “QVQLVESGGGLVQAGGSLRLSCAASGNIYDVYAMGWYRQAPGKERELVADIDRGGTTYADSVKGRFTISRDNAKNTVYLQMNSLKPEATAVYYCAADYVQGFGFYYQWHSDYWGQGTQVTVSS”, the “polyreactivity (PSR sort gate)” value is recorded as “low polyreactivity”.
As to “QVQLVESGGGLVQAGGSLRLSCAASGRIFAYYAMGWYRQAPGKERELVATISVTGGSTYYADSVKGRFTISRDNAKNTVYLQMNSLKPEDTAVYYCNVDPGTYWPYSGEDYWGQGTQVTVSS”, the “polyreactivity (PSR sort gate)” value is listed as “low polyreactivity”.
With “QVQLVESGGGLVQAGGSLRLSCAASGFTFGYYTMGWYRQAPGKERELVAAISSGGSTNYADSVKGRFTISRDNAKNTVYLQMNSLKPEDTAVYYCTATQIGPYYLPFDSWGQGTQVTVSS” the entry was “high polyreactivity”; with “QVQLVESGGGLVQAGGSLRLSCAASGSTFVDYYMGWYRQATGKERELVAAITYSGARTYYADSVKGRFTISRDNAKNTVYLQMNSLKPEDTAVYYCNADQSTASDQLEFDYWGQGTQVTVSS”, “low polyreactivity”; with “QDQLVESGGGLVQAGGSLRLSCAASGRTFWRYAMGWYRQAPGKERELVAAITSGGGSTYYADSVKGRFTISRDTAKNTVYLQMNSLKPEDTAVSYCNRAGRGRSFKGDYWGQGTQVTVSS”, “high polyreactivity”.
With “QVQLVESGRGLVQAGGSLRVSCAASGNTYLYYGMGWYRHAPGKERELVAAITQSGGTTYYADSVKGRFTISRDNAKNTVYFQMNTLIPEDTAVYYFAATRYYYYWYVYDDRGDYWGQGTQVSVSS” the entry was “low polyreactivity”; with “QVQLVESGAGLVQAGGSLRLRCAASRRSFRNYAMGWYRPAPGKEREVVAAIRSGVRTYYADSVKGRFTISRDNAKNTVYLQMNSLKPEDTAVYYCAVATGLLYKSHGYWGQGTQVTVSS”, “low polyreactivity”.
With “QVQLVESGGGLVQAGGSLRLSCAASGITFDHYVMGWYRQAPGKERELVAAISRRGGSTYYADSVKGRFTISRDNAKNTVYLQMNSLKPEDTAVYYCAADSSKHIGYDSWGQGTQVTVSS” the entry was “high polyreactivity”.
